Data reported in patent publication US20080119430A1.

Legend:
Experiment in all cases: cell-based or functional assay
[1] = target: Cdc42 (active Cdc42-GTP, endogenous in HUVECs) (human) (UniProt P60953)
[2] = target: Rac (active Rac-GTP, endogenous in HUVECs) (human) (UniProt P31749)
[3] = target: Rac (active Rac-GTP, endogenous in NIH3T3 cells)

Chain of Cdc42 (active Cdc42-GTP, endogenous in HUVECs) (human) (P60953 1-188 limits assumed): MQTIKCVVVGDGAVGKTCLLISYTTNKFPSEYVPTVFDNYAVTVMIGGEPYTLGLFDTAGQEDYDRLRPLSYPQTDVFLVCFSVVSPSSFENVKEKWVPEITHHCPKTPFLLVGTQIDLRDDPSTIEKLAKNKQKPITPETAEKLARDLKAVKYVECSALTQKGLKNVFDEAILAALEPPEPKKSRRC
Chain of Rac (active Rac-GTP, endogenous in HUVECs) (human) (P31749 whole entry): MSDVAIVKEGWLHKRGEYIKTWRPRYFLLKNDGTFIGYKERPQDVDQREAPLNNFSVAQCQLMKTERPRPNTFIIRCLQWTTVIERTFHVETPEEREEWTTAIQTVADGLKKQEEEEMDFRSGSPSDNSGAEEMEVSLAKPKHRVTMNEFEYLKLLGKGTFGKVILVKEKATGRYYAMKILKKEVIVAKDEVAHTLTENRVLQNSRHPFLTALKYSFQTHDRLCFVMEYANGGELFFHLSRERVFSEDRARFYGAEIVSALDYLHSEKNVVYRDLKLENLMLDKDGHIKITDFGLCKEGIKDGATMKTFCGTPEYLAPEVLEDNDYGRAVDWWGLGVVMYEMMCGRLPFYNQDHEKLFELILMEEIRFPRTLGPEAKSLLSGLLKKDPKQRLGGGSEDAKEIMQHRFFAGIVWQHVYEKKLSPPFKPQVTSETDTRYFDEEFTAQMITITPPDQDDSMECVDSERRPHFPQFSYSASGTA

| Substance | fold increase in active Cdc42 in HUVECs after BNO69 knockdown with BNO69R, compared to empty vector [1] [fold] | fold increase in active Rac in HUVECs after BNO69 knockdown with BNO69R, compared to empty vector [2] [fold] | increase in Rac activity (Rac-GTP pull-down) in NIH3T3 cells after inhibition of BNO69 expression with antisense BNO69R [3] [fold] |
| --- | --- | --- | --- |
| BNO69 (endogenous protein in HUVECs, knocked down by adenoviral antisense BNO69R) (from UniProt Q8N264 131-748) (enzyme) | 1.1 | 1.1 | – |
| BNO69 (endogenous protein in NIH3T3 cells, knocked down by retroviral antisense BNO69R) (enzyme) | – | – | 3 |
